# Measured values: patent US20230140868A1, “COMPOSITIONS AND METHODS FOR TREATING CANCER” (Alpha Beta Holdings, LLC, priority 2020, published 2023)
# B1: LM609: mouse monoclonal IgG1K antibody that recognizes human integrin αvβ3; SEQ ID NO:11 and 12 (antibody)
# heavy: MNFGLRLIFLVLTLKGVKCEVQLVESGGGLVKPGGSLKLSCAASGFAFSSYDMSWVRQIPEKRLEWVAKVSSGGGSTYYLDTVQGRFTISRDNAKNTLYLQMSSLNSEDTAMYYCARHNYGSFAYWGQGTLVTVSAAKTTPPSVYPLAPGSAAQTNSMVTLGCLVKGYFPEPVTVTWNSGSLSSGVHTFPAVLQSDLYTLSSSVTVPSSTWPSETVTCNVAHPASSTKVDKKIVPRDCGCKPCICTVPEVSSVFIFPPKPKDVLTITLTPKVTCVVVDISKDDPEVQFSWFVDDVEVHTAQTQPREEQFNSTFRSVSELPIMHQDWLNGKEFKCRVNSAAFPAPIEKTISKTKGRPKAPQVYTIPPPKEQMAKDKVSLTCMITDFFPEDITVEWQWNGQPAENYKNTQPIMDTDGSYFVYSKLNVQKSNWEAGNTFTCSVLHEGLHNHHTEKSLSHSPGK
# light: MVFTPQILGLMLFWISASRGDIVLTQSPATLSVTPGDSVSLSCRASQSISNHLHWYQQKSHESPRLLIKYASQSISGIPSRFSGSGSGTDFTLSINSVETEDFGMYFCQQSNSWPHTFGGGTKLEIKRADAAPTVSIFPPSSEQLTSGGASVVCFLNNFYPKDINVKWKIDGSERQNGVLNSWTDQDSKDSTYSMSSTLTLTKDEYERHNSYTCEATHKTSTSPIVKSFNRNEC
# modifications: mAb LM609-mIgG1-kappa Heavy chain; mAb LM609-mIgG1-kappa Light chain
# Columns and labels:
# [1] = biological target: integrin αvβ3 (Homo sapiens, UniProt P05106+P06756); settings: human cells; Cheresh, 1987; cited from earlier work
# [2] = system: HCC827-R18 erlotinib-resistant tumor cells; assay: Re-sensitization of erlotinib-resistant HCC827-R18 xenografts (FIG. 1); assay type: in vivo, nu/nu mice; settings: LM609 i.p., 10 mg/kg, twice/week with erlotinib 6.25 mg/kg vs erlotinib alone
# Experimental: HCC827-R18 and PC9-R4L erlotinib-resistant tumor cells generated as reported in Wettersten et al., Cancer Res. 79:5048 (2019), incorporated by reference herein in its entirety, were injected to form subcutaneous flank tumors in nu/nu recipient mice. […] Tumor dimensions were measured biweekly and volume calculated as […].
# To generate erlotinib-resistant tumors […], HCC827 or PC9 human lung cancer cells (5×10^6 tumor cells in 100 μl of PBS) were subcutaneously injected to the right flank of female nu/nu mice (Charles River, 088, 8-10 weeks old) and tumors were measured with calipers twice per week. Animals with a tumor volume of 100-200 mm^3 were randomly assigned into groups treated with combinations of Captisol (oral, six times/week) or erlotinib (oral, 6.25 mg/kg, six times/week). For each of the individual tumors shown in Figure S3 of Wettersten et al., Cancer Res. 79:5048 (2019)}, vehicle-treated erlotinib sensitive (HCC827-P and PC9-P) and erlotinib-resistant (HCC827-R18 and PC9-R4L) cells were isolated. A gain of αvβ3 expression on the cell surface of the erlotinib-resistant tumor cells was confirmed by flow cytometry.
# [3] = system: tumor cells; assay: In vitro ADCC with mouse NK cells; assay type: cell-based; settings: effector: mouse NK cells
# Experimental: (§1) We used the isolated macrophages as effector cells in an antibody-dependent cellular-cytotoxicity (ADCC) assay. […] The ratio of dead target cells (PI-positive) to the total target cell population (CFSE-positive) was calculated as described (Bracher, 2007).
# (§2) To our surprise, LM609-mediated ADCC was not achieved with mouse NK cells or peripheral blood mononuclear cells (PBMCs) isolated from human blood, immune effector cell types to which antibodies are commonly engineered for optimal binding (Listinsky, 2013; Yu, 2017). In fact, NK cells are not correlated with β3 expression in tumors. These findings were reported in FIG. 3E of Wettersten et al., Cancer Res. 79:5048 (2019).
# [4] = system: αvβ3-expressing tumor cell lines; assay: Macrophage-mediated killing: Fc dependence, ADCC vs ADCP vs direct killing; assay type: cell-based
# Experimental: as §1
# These findings were reported in FIGS. 3C-3D of Wettersten et al., Cancer Res. 79:5048 (2019).
# Monoclonal antibodies can direct macrophages to induce tumor cell killing through two primary mechanisms, processes known as antibody-dependent cellular phagocytosis (ADCP) and antibody-dependent cellular cytotoxicity (ADCC). […] The lack of an ADCP response is consistent with high tumor cell expression of CD47, the “don't eat me” signal (Chao, 2012) that tumor cells often exploit to evade phagocytosis.
# [5] = system: tumor cells; assay: In vitro ADCC with mouse bone marrow derived macrophages (LM609); assay type: cell-based; settings: effector: BMDM isolated from healthy mice
# Experimental: Mouse bone marrow-derived macrophages (BMDMs) were aseptically harvested from euthanized 8-10 week-old female C57BL/6 mice by flushing leg bones with RPMI, filtering through 70 μm cell strainers, and incubating in Red Blood Cell Lysing Buffer Hybri-Max™ (Sigma, R7757). Cells were incubated with mouse M-CSF (Peprotech, 315-02) for 7 days before ADCC assays.
# as §1
# [6] = system: tumor cells; assay: In vitro ADCC with human PBMCs; assay type: cell-based; settings: effector: PBMCs isolated from human blood
# Experimental: Human peripheral blood mononuclear cells (PBMCs) and macrophages were isolated using leukoreduction system chambers (LRSC) purchased from the San Diego Blood Bank. PBMCs were isolated from LRSC using Histopaque-1083 (Sigma, 10831) following the manufacturer's protocol. To obtain macrophages, PBMCs were incubated in tissue culture plates with human M-CSF (Peprotech, 300-25) for 5 days.
# as §1, §2
# [7] = additional αvβ3-expressing tumor cell lines: lung, pancreas, brain, kidney cancer
# Sequence of integrin αvβ3 (P06756 31-889 limits assumed): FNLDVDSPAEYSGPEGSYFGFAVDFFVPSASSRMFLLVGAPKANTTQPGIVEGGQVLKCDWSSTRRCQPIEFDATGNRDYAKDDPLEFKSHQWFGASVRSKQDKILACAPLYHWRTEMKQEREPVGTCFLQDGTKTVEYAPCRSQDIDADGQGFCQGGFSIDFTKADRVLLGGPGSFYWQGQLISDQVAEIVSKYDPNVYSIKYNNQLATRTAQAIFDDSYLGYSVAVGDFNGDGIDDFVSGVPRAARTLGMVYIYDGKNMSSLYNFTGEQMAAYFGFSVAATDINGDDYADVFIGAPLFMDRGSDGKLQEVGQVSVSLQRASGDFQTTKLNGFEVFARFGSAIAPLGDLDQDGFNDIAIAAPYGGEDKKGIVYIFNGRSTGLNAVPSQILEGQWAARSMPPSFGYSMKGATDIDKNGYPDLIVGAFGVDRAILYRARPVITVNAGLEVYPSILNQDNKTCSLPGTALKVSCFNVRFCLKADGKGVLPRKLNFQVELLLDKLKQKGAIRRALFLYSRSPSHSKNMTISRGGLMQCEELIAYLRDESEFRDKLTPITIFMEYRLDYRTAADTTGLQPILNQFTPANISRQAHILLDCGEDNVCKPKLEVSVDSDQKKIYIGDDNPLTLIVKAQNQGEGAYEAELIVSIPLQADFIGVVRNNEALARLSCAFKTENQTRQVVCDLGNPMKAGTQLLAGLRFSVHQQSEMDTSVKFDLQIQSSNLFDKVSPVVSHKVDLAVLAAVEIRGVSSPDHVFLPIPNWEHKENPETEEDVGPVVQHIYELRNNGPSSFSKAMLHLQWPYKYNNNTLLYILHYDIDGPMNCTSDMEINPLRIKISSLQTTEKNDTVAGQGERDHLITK
# Sequence of integrin αvβ3 (P06756 891-1048 limits assumed): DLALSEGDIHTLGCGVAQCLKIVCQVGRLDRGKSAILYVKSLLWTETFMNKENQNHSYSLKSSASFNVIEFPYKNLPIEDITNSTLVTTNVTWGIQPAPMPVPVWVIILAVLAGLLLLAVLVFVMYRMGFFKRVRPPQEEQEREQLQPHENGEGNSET
# Sequence of integrin αvβ3 (P05106 27-788): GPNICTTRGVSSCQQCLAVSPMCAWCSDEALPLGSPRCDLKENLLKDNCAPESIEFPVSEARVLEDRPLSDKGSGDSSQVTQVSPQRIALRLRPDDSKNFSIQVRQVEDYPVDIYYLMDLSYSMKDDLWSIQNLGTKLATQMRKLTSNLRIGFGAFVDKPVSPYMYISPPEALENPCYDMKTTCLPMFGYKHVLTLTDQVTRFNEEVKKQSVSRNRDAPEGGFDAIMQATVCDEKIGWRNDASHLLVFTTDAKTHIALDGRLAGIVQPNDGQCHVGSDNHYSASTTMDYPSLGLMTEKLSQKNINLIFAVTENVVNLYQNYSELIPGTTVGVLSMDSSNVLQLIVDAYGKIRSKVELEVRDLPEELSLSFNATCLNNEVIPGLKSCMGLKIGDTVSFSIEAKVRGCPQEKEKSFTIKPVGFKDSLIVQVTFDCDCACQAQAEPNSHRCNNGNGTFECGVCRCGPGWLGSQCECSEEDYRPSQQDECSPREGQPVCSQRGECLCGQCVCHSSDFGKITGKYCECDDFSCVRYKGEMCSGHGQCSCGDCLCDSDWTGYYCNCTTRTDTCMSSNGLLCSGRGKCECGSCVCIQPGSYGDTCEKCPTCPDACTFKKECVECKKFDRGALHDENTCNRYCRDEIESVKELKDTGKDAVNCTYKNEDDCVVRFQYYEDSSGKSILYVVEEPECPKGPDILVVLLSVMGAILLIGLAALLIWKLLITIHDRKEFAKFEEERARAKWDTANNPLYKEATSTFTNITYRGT
molecule,measurement,setting,value
B1,recognition of integrin αvβ3,[1],recognizes integrin αvβ3 on human
same,re-sensitization of resistant tumors to erlotinib (tumor volume),[2],able to re-sensitize resistant tumors to the growth inhibitory effects of erlotinib
same,LM609-mediated ADCC,[3],not achieved
same,ADCP,[4]; FIG. 3F of Wettersten et al.,not ADCP
same,direct killing,[4]; FIG. 3F of Wettersten et al.,not ADCP or direct killing
same,ADCP,[4]; [7],not ADCP
same,direct killing,[4]; [7],not ADCP or direct killing
same,macrophage-mediated ADCC,[4]; [7],also observed
same,macrophage-mediated killing,"[4]; in the presence of an antibody blocking the Fc receptors CD16, CD32, and CD64",no macrophage-mediated killing
same,macrophage ADCC,"[4]; required integrin β3 expression, FIG. 3F of Wettersten et al.",induced macrophage ADCC
same,ADCC (tumor cell killing),[5],could also kill tumor cells
same,LM609-mediated ADCC,[6],not achieved
